# Assay results: article doi:10.1101/2022.08.26.505453
# Several values for one entry are separate records, joined by “and”; a condition that tells them apart may be missing. Identical values can stand only once.
# What was measured:
# [1] = biological target: MBP-Vpu fusion protein (His8 tag, maltose binding protein, 11-residue linker, full-length HIV-1 Vpu with Q36C) (HIV-1); assay: SEC
# [2] = biological target: MBP-Vpu fusion protein (His8 tag, maltose binding protein, 11-residue linker, full-length HIV-1 Vpu with Q36C) (HIV-1); assay: SEC; remark: listed apart in the source
# [3] = biological target: MBP-Vpu fusion protein (His8 tag, maltose binding protein, 11-residue linker, full-length HIV-1 Vpu with Q36C) (HIV-1); assay: SDS-PAGE and western blot
# [4] = biological target: MBP-Vpu fusion protein (His8 tag, maltose binding protein, 11-residue linker, full-length HIV-1 Vpu with Q36C) (HIV-1); assay: negative staining electron microscopy
# [5] = biological target: MBP-Vpu fusion protein (His8 tag, maltose binding protein, 11-residue linker, full-length HIV-1 Vpu with Q36C) (HIV-1); assay: SEC; remark: listed apart in the source
substance,measurement,setting,value
"MBP-Vpu fusion protein (His8 tag, maltose binding protein, 11-residue linker, full-length HIV-1 Vpu with Q36C)",stoichiometry N,[1],5
same,stoichiometry N,[2],5 and 4
same,stoichiometry N,[3],2 and 5
same,stoichiometry N,[4],5
same,stoichiometry N,[5],5 and 4
